Measured values reported in the supplement of paper PMC12042874.
± gives the uncertainty stated by the source.

Experiment: amyloid nucleation score (Sup35N fusion, yeast selection) (log enrichment); library NNK3; higher = more nucleation; inactive = no reads after selection
Outline: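 The nucleation score, computed with DiMSum, is the log enrichment of output over input reads, centred on the mode score of non-aggregating sequences. Sequences with under 100 input reads were dropped. Reads were generated by Illumina sequencing of plasmid inserts from psi-negative yeast with Sup35N fused to peptides of 20 random codons, induced with 100 μM copper sulfate for 24 hours and grown 7 days at 30°C on medium lacking adenine and uracil.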
For FSFCIGRMCDLQALTASCLN, the amyloid nucleation score was “inactive”. In the case of FSGTIGILFFMTWSTVLPWG, the amyloid nucleation score is reported as “inactive”. With FSHGFSIYRLKKT the amyloid nucleation score was “inactive”. FSIAMFQANSGYASR gave an amyloid nucleation score of 1.25 ± 0.14. For FSIIKFYWAEYWARRGEIVR, the amyloid nucleation score was “inactive”. For FSKVTFHSCGIQCERQVKNN, the amyloid nucleation score was “inactive”. In the case of FSLRLPYFA, the amyloid nucleation score is reported as “inactive”. For FSLRNICSGLWILSVIAFPI, the amyloid nucleation score was “inactive”. In the case of FSNSRDSILWHRFGRICASY, the amyloid nucleation score is reported as 1.58 ± 0.12. Substance FSPRKSLASLGITVVVDHCI has an amyloid nucleation score of -0.057 ± 0.81. FSRFIRQ gave an amyloid nucleation score of 0.677 ± 0.15. For FSRSTTDVSINSGWKM, the amyloid nucleation score was “inactive”. For FSSIMSFVVYSRKLLEVTSP, the amyloid nucleation score was “inactive”. With FSSLGANYNHEILKGCGVGS the amyloid nucleation score was “inactive”. For FSSMF, the amyloid nucleation score was “inactive”. With FSSMVNVYSLLKVFF the amyloid nucleation score was “inactive”. In the case of FSVANGHRVM, the amyloid nucleation score is reported as “inactive”. In the case of FSVQAIWFVMSLNRFLGKGR, the amyloid nucleation score is reported as “inactive”. In the case of FSVRIKYI, the amyloid nucleation score is reported as “inactive”. With FSVSDSFP the amyloid nucleation score was “inactive”. With FSWSLSLLHIPYKQWRGRWV the amyloid nucleation score was “inactive”. With FTAFMFS the amyloid nucleation score was “inactive”. In the case of FTCPASST, the amyloid nucleation score is reported as “inactive”. With FTMSMYKGFRRCA the amyloid nucleation score was “inactive”. With FTNFDNFSFYASWLCG the amyloid nucleation score was “inactive”. In the case of FTNISVNNAVFVFVVCTAV, the amyloid nucleation score is reported as 2.52 ± 0.054. In the case of FTRSLETYYFGKNDVWFSLS, the amyloid nucleation score is reported as “inactive”. With FTRWIWFIVITSASCFKSFH the amyloid nucleation score was “inactive”. With FTSLLAVYSIPLQWGATT the amyloid nucleation score was “inactive”. In the case of FTSQYIYDAIRRLRKMSIMS, the amyloid nucleation score is reported as “inactive”. In the case of FTWARETVPVVQNWFGTREV, the amyloid nucleation score is reported as “inactive”. With FTWSVHKVDEVCHLLETGDA the amyloid nucleation score was “inactive”. For FTWYRR, the amyloid nucleation score was “inactive”. With FTYDCECALICINYT the amyloid nucleation score was 0.448 ± 0.27. Work on FVCLKNFIFNRYKADGD yielded an amyloid nucleation score of 1.17 ± 0.19. With FVCLT the amyloid nucleation score was 1.32 ± 0.13. With FVESSDLMRMSWFWWTGWDL the amyloid nucleation score was “inactive”. With FVGRFCMFNLGRCLPIVLGS the amyloid nucleation score was “inactive”. Substance FVKSVRYSL has an amyloid nucleation score of 1.45 ± 0.064. In the case of FVLESFCRPLHSWVAGMGV, the amyloid nucleation score is reported as “inactive”. With FVLFAYWHARPNTISRGCDH the amyloid nucleation score was “inactive”. With FVMFAKASRGCTVSLCVYDV the amyloid nucleation score was -0.37 ± 0.39. With FVQGYSFWYWVETYMFIRFV the amyloid nucleation score was “inactive”. For FVRANYIWWNSWYLECYIGR, the amyloid nucleation score was “inactive”. In the case of FVRPFGRVFIFQKDFSIKVC, the amyloid nucleation score is reported as “inactive”. FVRTLCCLAYVWHYDLRYC gave an amyloid nucleation score of 0.406 ± 0.31. For FVSKHRVSTIWRVISHMRGG, the amyloid nucleation score was -0.257 ± 0.98. With FVSLLWLRGDVVHALFIQWM the amyloid nucleation score was “inactive”. For FVTRHLNFCM, the amyloid nucleation score was “inactive”. In the case of FVTYCVRQETV, the amyloid nucleation score is reported as 0.578 ± 0.15. In the case of FVVGHENNFLKFANSLSRL, the amyloid nucleation score is reported as “inactive”. FVWLWVVISLNCSNNEFVFN showed an amyloid nucleation score of 2.51 ± 0.061. In the case of FVYFKLGVMSPLQTTNTHLS, the amyloid nucleation score is reported as 0.804 ± 0.11. For FVYYANYQYFRPFYKMSWHQ, the amyloid nucleation score was 1.51 ± 0.078. In the case of FWMMDYMYSVRMNFVWGYIR, the amyloid nucleation score is reported as “inactive”. For FWNEVMNRLPGLL, the amyloid nucleation score was “inactive”. In the case of FWNSFHFVNNYWHVY, the amyloid nucleation score is reported as “inactive”. In the case of FWSFRPGHITLSIGHTRIAG, the amyloid nucleation score is reported as “inactive”. In the case of FWTGVACNTAGCCLGYESLR, the amyloid nucleation score is reported as “inactive”. With FWWVKC the amyloid nucleation score was “inactive”. For FYKLRHQVRTKISERYLPDS, the amyloid nucleation score was “inactive”. For FYLYPDVERLNFCIMVRHMF, the amyloid nucleation score was “inactive”. With FYMWFMRTGLTKYPNGAIKV the amyloid nucleation score was “inactive”. For FYMYLTSVCA, the amyloid nucleation score was “inactive”. For FYNFWWCI, the amyloid nucleation score was 1.87 ± 0.064. For FYPLICQRLKRSNIPGVWP, the amyloid nucleation score was “inactive”. Substance FYRAYSDYFWKTMFSYLGTS has an amyloid nucleation score of -0.619 ± 0.93. For FYRFFDSV, the amyloid nucleation score was “inactive”. Substance FYRFISAMFYDWDSWIICGN has an amyloid nucleation score of 0.674 ± 0.12. With FYSAISVAAYIEMTWESVDM the amyloid nucleation score was “inactive”. For FYSFFILSIGSSIPCLRSHM, the amyloid nucleation score was “inactive”. With FYTIGWGWNQKCGIFRHMVR the amyloid nucleation score was “inactive”. For FYVRVALRVSLLLWSGFTWV, the amyloid nucleation score was “inactive”. Substance GADVSSHVKIFINYNLFSFI has an amyloid nucleation score of 2.55 ± 0.076. For GAFRTFYMLMWSYLCISGSV, the amyloid nucleation score was “inactive”. In the case of GAIRLRSVNSNLGWLTAPLR, the amyloid nucleation score is reported as “inactive”. In the case of GAMLRVGV, the amyloid nucleation score is reported as “inactive”. In the case of GANFVCSVECRLVRRNSRYD, the amyloid nucleation score is reported as 0.511 ± 0.21. With GARLAVW the amyloid nucleation score was “inactive”. In the case of GAVWFIRRRPKDRIRRVSLW, the amyloid nucleation score is reported as “inactive”. With GAWVTATWAFDAVLFCPGKM the amyloid nucleation score was “inactive”. In the case of GCFIGDVRMSMSCSKFLCIE, the amyloid nucleation score is reported as 0.381 ± 0.15. Substance GCKMVGRICSDIICSVGVME has an amyloid nucleation score of 0.988 ± 0.16. For GCKTREVLLYWLIMRPGGYS, the amyloid nucleation score was “inactive”. In the case of GCLRDPTVAQVDYLGYGVRL, the amyloid nucleation score is reported as “inactive”. For GCRYQGHCHVYYLAERIACD, the amyloid nucleation score was “inactive”. With GCSLGTHSVTLTFM the amyloid nucleation score was “inactive”. In the case of GCSSVRAGH, the amyloid nucleation score is reported as “inactive”. GCTCQ gave an amyloid nucleation score of 1.21 ± 0.15. In the case of GCTDIHASEH, the amyloid nucleation score is reported as “inactive”. In the case of GCVLCGIPSAWRSPGASSDA, the amyloid nucleation score is reported as 1.05 ± 0.2. In the case of GDCFWSPDKNWIALEVFQTF, the amyloid nucleation score is reported as “inactive”. For GDDIEILSFEVWRVFSKSWS, the amyloid nucleation score was “inactive”. With GDDSSRHFNEFLYNRFAALW the amyloid nucleation score was “inactive”. In the case of GDLKLGLVIYESCGSMVMSW, the amyloid nucleation score is reported as “inactive”. For GDNRFLYELFLPHLNVVSNL, the amyloid nucleation score was “inactive”. For GDRRER, the amyloid nucleation score was 0.811 ± 0.16. In the case of GDTHHCAADGV, the amyloid nucleation score is reported as 0.504 ± 0.24. With GDTVLVILSILSVGCC the amyloid nucleation score was 1.2 ± 0.15. For GDVRLFTCRMLGILFFSIT, the amyloid nucleation score was “inactive”. Substance GELPLRVKVKSFHTDTSLRK has an amyloid nucleation score of 0.614 ± 0.29. In the case of GERTVLVKGLMRCIWVPVIW, the amyloid nucleation score is reported as “inactive”. In the case of GFESPRGFSSVFSIVYGFWA, the amyloid nucleation score is reported as 0.855 ± 0.2. Substance GFGGFGRVDNSLCIKAPCCV has an amyloid nucleation score of 0.127 ± 0.29. With GFGGSSAHDRGYETRKSSLE the amyloid nucleation score was “inactive”. GFHTI gave an amyloid nucleation score of -0.223 ± 0.73. With GFLSGVKVLNGGEDNDTLPE the amyloid nucleation score was “inactive”. For GFSTYRIKIVYDVNMY, the amyloid nucleation score was “inactive”. In the case of GFYLVVKTINGFPNNLKWMA, the amyloid nucleation score is reported as 0.296 ± 0.21. In the case of GFYRLVVQGLVVSRGLNWCV, the amyloid nucleation score is reported as “inactive”. GFYVLMISVTLMDSQTPLR showed an amyloid nucleation score of 1.65 ± 0.11. In the case of GGALAKNHILCR, the amyloid nucleation score is reported as “inactive”. With GGCHNGCGFYCRRN the amyloid nucleation score was “inactive”. For GGHLLGHIASVFMEFCALQC, the amyloid nucleation score was “inactive”. In the case of GGKMMFFKIRFFC, the amyloid nucleation score is reported as “inactive”. For GGNICPIRPLSRKEWELGRH, the amyloid nucleation score was -0.566 ± 1.4. With GGQVRDCDNVEQCSATNSEG the amyloid nucleation score was “inactive”. Work on GGSCTDSVVIEGI yielded an amyloid nucleation score of 0.252 ± 0.24. In the case of GGTVFSNCVGVRRLNMYINY, the amyloid nucleation score is reported as “inactive”. For GGWIY, the amyloid nucleation score was “inactive”. For GGYSQKLYILYDYLFENYYS, the amyloid nucleation score was “inactive”. For GGYVDLRLMT, the amyloid nucleation score was “inactive”. Substance GHCEYVVCYVNCRFVQMSVR has an amyloid nucleation score of 1.65 ± 0.093. For GHNVQGNRLMITYDLNIVGS, the amyloid nucleation score was “inactive”. With GHRHQFSHATVNDVKSRV the amyloid nucleation score was “inactive”. In the case of GHVAHLINILYVNSTIPQTG, the amyloid nucleation score is reported as “inactive”. Work on GIMSCQ yielded an amyloid nucleation score of 0.021 ± 0.88. In the case of GINDLISSALNNSRRLRTVG, the amyloid nucleation score is reported as “inactive”. With GIREAV the amyloid nucleation score was “inactive”. With GIRVF the amyloid nucleation score was “inactive”. Work on GIRVSLGVSFRECFNNSVSR yielded an amyloid nucleation score of 2.43 ± 0.053. With GISRMGMAEDPDSGWSHDYY the amyloid nucleation score was “inactive”. In the case of GISYLVRNSGAKRGD, the amyloid nucleation score is reported as “inactive”. In the case of GITRVRSSFVSAASHV, the amyloid nucleation score is reported as “inactive”. Substance GIVSYCICIFGNFQK has an amyloid nucleation score of 2.64 ± 0.064. In the case of GKCLLYRFILILLHP, the amyloid nucleation score is reported as -0.155 ± 0.93. In the case of GKCVGEPPAQSEKTWRNGSL, the amyloid nucleation score is reported as “inactive”. In the case of GKIEDYCLVRESQAIPSLLQ, the amyloid nucleation score is reported as “inactive”. GKIFMSVTFF gave an amyloid nucleation score of 2.43 ± 0.054. For GKLSNH, the amyloid nucleation score was “inactive”. With GKWKIKQ the amyloid nucleation score was “inactive”. Substance GLCNTYCFHHCFRWVR has an amyloid nucleation score of 0.769 ± 0.24. For GLCSFR, the amyloid nucleation score was “inactive”. In the case of GLDRRKICKLHGYGNS, the amyloid nucleation score is reported as “inactive”. For GLFIGYDVQ, the amyloid nucleation score was “inactive”. For GLFLGYSLIASVIGRLVDNL, the amyloid nucleation score was “inactive”. With GLGYWAKGSHLWVLLRLLNH the amyloid nucleation score was “inactive”. For GLLMFLNVCLVVTVSARTYS, the amyloid nucleation score was “inactive”. With GLMERNDMSEYSSAG the amyloid nucleation score was “inactive”. For GLNLISISFRAGFAGMHRRA, the amyloid nucleation score was 1.82 ± 0.099. In the case of GLSKKKECGFLLARIVVVVV, the amyloid nucleation score is reported as “inactive”. GLTLRRWINAFHRHVGNKGQ gave an amyloid nucleation score of 0.592 ± 0.24. GLTVCTSYLSISAYDMYANL gave an amyloid nucleation score of 1.29 ± 0.067. With GLYVVYFNILTTKGYQLIVM the amyloid nucleation score was “inactive”. With GMCKGMVIGSAVDFTMFSAA the amyloid nucleation score was “inactive”. With GMFARHVFMIIEPHRIIVFH the amyloid nucleation score was “inactive”. In the case of GMQAGTGSKCCGRTGQI, the amyloid nucleation score is reported as “inactive”. For GMQPVQQ, the amyloid nucleation score was “inactive”. For GMVMVLQTTRYNCHMMRELQ, the amyloid nucleation score was “inactive”. With GNALSAFPVGSFRKVVRCHG the amyloid nucleation score was “inactive”. For GNDNYVVLFNCDV, the amyloid nucleation score was “inactive”.
